Results taken from patent US8338168B2.

Assays:
[1] = biological target: RDPrHIV mutant glycoprotein (feline endogenous virus RD114)
[2] = biological target: CH-296 retronectin fragment (Homo sapiens (Human)) (UniProt P02751)

MLV viral core protease (enzyme)
infectivity of MLV pseudotyped vectors on TE671 cells [1]: < 20 fold

RD114/TR chimeric glycoprotein
transduction efficiency of human CD34+ cells on retronectin-coated plates against no retronectin [2]: 10 fold
